Results published in US20120282271A1 (Genentech, published 2012).

Biological target: T1, Ron (Sema IPT1)-IgG fusion protein (human, UniProt Q04912 25-683, limits assumed)
T1 construct: domain: Sema IPT1; Captured on the chip or plate through an anti-human IgG (Fc specific) antibody; also called Ron-Fc; human Ron; not shown: IgG (Fc) portion, captured by rabbit anti-human IgG Fc antibody
T1 sequence (looked up): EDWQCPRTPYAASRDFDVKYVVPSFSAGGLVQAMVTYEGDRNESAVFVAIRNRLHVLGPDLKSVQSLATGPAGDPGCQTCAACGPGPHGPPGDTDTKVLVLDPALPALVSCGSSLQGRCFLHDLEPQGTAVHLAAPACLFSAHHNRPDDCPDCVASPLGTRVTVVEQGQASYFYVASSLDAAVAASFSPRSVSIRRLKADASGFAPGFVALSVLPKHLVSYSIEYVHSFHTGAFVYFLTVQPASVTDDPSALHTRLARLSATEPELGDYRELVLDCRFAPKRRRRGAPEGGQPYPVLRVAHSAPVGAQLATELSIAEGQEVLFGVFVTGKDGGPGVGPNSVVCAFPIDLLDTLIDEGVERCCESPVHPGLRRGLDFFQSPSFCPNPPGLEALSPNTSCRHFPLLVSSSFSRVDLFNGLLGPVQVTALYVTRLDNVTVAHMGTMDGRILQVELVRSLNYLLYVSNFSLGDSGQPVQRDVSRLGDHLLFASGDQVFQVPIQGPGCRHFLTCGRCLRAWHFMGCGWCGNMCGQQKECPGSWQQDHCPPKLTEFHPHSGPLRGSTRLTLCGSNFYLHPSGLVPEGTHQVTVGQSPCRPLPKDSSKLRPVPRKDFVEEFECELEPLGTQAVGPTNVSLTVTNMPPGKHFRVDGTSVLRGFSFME
Assay: ELISA, Ron (Sema IPT1)-IgG captured on an anti-human IgG Fc coated plate, His tagged MSP detected with anti-His-HRP, four parameter fit; ELISA, not SPR; printed only as 'MSP'
Protocol: To determine binding affinity of hepsin-activated MSP to human Ron, surface plasmon resonance measurements on a BIAcore™-3000 instrument (GE Health Care, NJ) were performed. Rabbit anti-human IgG were chemically immobilized (amine coupling) on CM5 biosensor chips and the Ron (Sema IPT1)-IgG fusion protein was captured to give approximately 250 response units (RU). For kinetics measurements, different concentration of either hepsin-activated MSP or a commercially available MSP (R&D systems) were injected in HBS-P buffer at 25° C. with a flow rate of 30 μl/min. Association rates (kₒₙ) and dissociation rates (koff) were obtained by using a simple one-to-one Langmuir binding model (BIA-Evaluation) and the equilibrium dissociation constants (KD) were calculated (koff/kₒₙ). […] Bound MSP was detected using anti-His-HRP (Qiagen, Valencia, Calif.) followed by addition of TMB/H₂O₂ substrate (KPL, Gaithersburg, Md.). The reaction was stopped with 1M H₃PO₄ and the A₄₅₀ was measured on a Molecular Devices (Sunnyvale, Calif.) SpectraMax Plus³⁸⁴ microplate reader. The effective concentration to give half-maximal binding (EC₅₀) was determined by a four parameter fit using Kaleidagraph (Synergy Software, Reading, Pa.). […]

B1: hepsin-activated MSP (recombinant human macrophage-stimulating protein, C672A, cleaved by hepsin at Arg483-Val484) (ligand)
chain 1: QRSPLNDFQVLRGTELQHLLHAVVPGPWQEDVADAEECAGRCGPLMDCRAFHYNVSSHGCQLLPWTQHSPHTRLRRSGRCDLFQKKDYVRTCIMNNGVGYRGTMATTVGGLPCQAWSHKFPNDHKYTPTLRNGLEENFCRNPDGDPGGPWCYTTDPAVRFQSCGIKSCREAACVWCNGEEYRGAVDRTESGRECQRWDLQHPHQHPFEPGKFLDQGLDDNYCRNPDGSERPWCYTTDPQIEREFCDLPRCGSEAQPRQEATTVSCFRGKGEGYRGTANTTTAGVPCQRWDAQIPHQHRFTPEKYACKDLRENFCRNPDGSEAPWCFTLRPGMRAAFCYQIRRCTDDVRPQDCYHGAGEQYRGTVSKTRKGVQCQRWSAETPHKPQFTFTSEPHAQLEENFCRNPDGDSHGPWCYTMDPRTPFDYCALRRCADDQPPSILDPPDQVQFEKCGKRVDRLDQRRSKLR
chain 2: VVGGHPGNSPWTVSLRNRQGQHFCGGSLVKEQWILTARQCFSSCHMPLTGYEVWLGTLFQNPQHGEPSLQRVPVAKMVCGPSGSQLVLLKLERSVTLNQRVALICLPPEWYVVPPGTKCEIAGWGETKGTGNDTVLNVALLNVISNQECNIKHRGRVRESEMCTEGLLAPVGACEGDYGGPLACFTHNAWVLEGIIIPNRVCARSRWPAVFTRVSVFVDWIHKVMRLG
notes: Made by treating recombinant pro-MSP (C672A, from CHO cells) with the recombinant hepsin extracellular domain; It is a disulfide-linked α/β heterodimer; also called hepsin-treated pro-MSP
For B1, which EC50 is on record?
The EC50 was 519 pM.
